Measured values as given in patent US20240417475A1.

Key:
[1] = biological target: CD16A endogenously expressed on primary human NK cells (human) (UniProt P08637); assay: flow cytometry on primary human NK cells, biotinylated antibody, 37 C, with 10 mg/mL polyclonal human IgG as competitor, mean of 4
[2] = biological target: CD16A endogenously expressed on primary human NK cells (human) (UniProt P08637); assay: flow cytometry on primary human NK cells, biotinylated antibody, 37 C, without IgG, mean of 4
[3] = biological target: human CD16A-mFc (158F) (sAg_107) (human) (UniProt P08637); assay: ELISA, plate coated with human CD16A-mFc (158F), anti-mouse HRP detection, A450
Chain of human CD16A-mFc (158F) (sAg_107) (human) (P08637 17-208 limits assumed): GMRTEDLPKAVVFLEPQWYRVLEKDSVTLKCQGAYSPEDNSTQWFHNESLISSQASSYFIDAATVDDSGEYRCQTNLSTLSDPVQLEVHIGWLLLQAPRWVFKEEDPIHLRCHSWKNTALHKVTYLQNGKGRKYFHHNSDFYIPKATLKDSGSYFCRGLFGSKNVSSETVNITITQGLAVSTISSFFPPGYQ

[4] = biological target: human CD16A-mFc (158F) (sAg_107) (human) (UniProt P08637); assay: ELISA, plate coated with human CD16A-mFc (158F) (sAg_107), one-site fit, mean of 3
[5] = biological target: CD16A endogenously expressed on primary human NK cells (human) (UniProt P08637); assay: flow cytometry on primary human NK cells at 37 °C, biotinylated antibody, streptavidin-FITC, without polyclonal human IgG
[6] = biological target: human CD16A-mFc (158V) (sAg_149) (human) (UniProt P08637); assay: ELISA, plate coated with human CD16A-mFc (158V), anti-mouse HRP detection, A450
Chain of human CD16A-mFc (158V) (sAg_149) (human) (P08637 17-208 F176V limits assumed): as the sequence (P08637 17-208 limits assumed) above, with F160V counted along it

Chain of CD16A endogenously expressed on primary human NK cells (human) (P08637 17-254 limits assumed): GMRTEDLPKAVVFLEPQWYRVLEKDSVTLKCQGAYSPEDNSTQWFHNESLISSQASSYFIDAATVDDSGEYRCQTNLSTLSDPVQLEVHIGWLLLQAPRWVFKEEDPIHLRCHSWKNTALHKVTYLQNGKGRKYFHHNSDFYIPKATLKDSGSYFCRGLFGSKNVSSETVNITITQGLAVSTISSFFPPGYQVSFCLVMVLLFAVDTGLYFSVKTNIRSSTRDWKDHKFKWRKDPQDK

anti-human CD16 antibody clone 3G8
Kd [1]: 54.6 nM | Kd [2]: 0.3 nM | EC50 (read off the curve) [3]: 0.03 nM | Kd [4]: 0.02 nM | EC50 (read off the curve) [5]: 0.3 nM | EC50 (read off the curve) [6]: 0.2 nM
